{"source": "paper PMC4623604", "about": "“Discovery of Small Molecules that Inhibit the Disordered Protein, p27^Kip1” (Scientific Reports, 2015)", "origin": "cited, not measured here", "target": "cyclin A (Homo sapiens) (UniProt P20248)", "sequence (P20248 whole entry)": "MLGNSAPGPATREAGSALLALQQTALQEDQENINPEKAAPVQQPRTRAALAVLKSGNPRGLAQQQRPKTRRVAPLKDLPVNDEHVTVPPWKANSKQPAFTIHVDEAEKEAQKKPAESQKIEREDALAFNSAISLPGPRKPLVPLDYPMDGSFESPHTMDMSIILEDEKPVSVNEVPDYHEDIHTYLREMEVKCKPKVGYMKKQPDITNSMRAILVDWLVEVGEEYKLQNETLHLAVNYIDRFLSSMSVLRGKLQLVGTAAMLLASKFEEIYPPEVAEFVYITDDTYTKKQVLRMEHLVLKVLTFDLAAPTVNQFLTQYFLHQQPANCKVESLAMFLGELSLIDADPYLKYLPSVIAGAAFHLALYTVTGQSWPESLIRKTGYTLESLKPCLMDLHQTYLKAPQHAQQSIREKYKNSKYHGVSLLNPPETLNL"}
{"substance": "p27 D1 (from UniProt P46527)", "values": [{"measurement": "Kd", "result": 42, "unit": "nM"}]}
